# T1: APBA2_1, Q99767
# T1 sequence (Q99767 563-664, limits assumed, looked up): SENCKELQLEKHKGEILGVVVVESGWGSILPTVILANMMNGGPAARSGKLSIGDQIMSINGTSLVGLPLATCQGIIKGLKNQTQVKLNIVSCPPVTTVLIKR
# T2: ARHGEF11, O15085
# T2 sequence (O15085 42-136, limits assumed, looked up): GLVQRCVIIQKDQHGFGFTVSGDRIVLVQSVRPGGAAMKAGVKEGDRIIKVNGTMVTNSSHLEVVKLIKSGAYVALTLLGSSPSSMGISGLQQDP
# T3: CARD11, Q9BXL7
# T3 sequence (Q9BXL7 662-765, limits assumed, looked up): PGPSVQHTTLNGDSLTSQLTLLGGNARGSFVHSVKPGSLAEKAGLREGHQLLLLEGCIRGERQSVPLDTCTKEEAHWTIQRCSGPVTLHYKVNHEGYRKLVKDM
# T4: GRIP1_2, Q9Y3R0
# T4 sequence (Q9Y3R0 145-248, limits assumed, looked up): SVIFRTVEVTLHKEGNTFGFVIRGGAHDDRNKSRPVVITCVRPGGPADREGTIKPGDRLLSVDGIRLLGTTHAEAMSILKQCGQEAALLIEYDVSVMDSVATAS
# T5: GRIP1_5, Q9Y3R0
# T5 sequence (Q9Y3R0 568-668, limits assumed, looked up): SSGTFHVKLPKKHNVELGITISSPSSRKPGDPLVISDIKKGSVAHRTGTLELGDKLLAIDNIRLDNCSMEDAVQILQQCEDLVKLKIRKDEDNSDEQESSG
# T6: HTRA4, P83105
# T6 sequence (P83105 378-476, limits assumed, looked up): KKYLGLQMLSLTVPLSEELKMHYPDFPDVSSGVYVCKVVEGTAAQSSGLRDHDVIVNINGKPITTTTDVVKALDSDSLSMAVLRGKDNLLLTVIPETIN
# T7: LNX2_2, Q8N448
# T7 sequence (Q8N448 334-432, limits assumed, looked up): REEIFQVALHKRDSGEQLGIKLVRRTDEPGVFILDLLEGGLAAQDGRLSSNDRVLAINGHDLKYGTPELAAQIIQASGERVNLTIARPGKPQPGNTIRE
# T8: LRRC7, Q96NW7
# T8 sequence (Q96NW7 1440-1537, limits assumed, looked up): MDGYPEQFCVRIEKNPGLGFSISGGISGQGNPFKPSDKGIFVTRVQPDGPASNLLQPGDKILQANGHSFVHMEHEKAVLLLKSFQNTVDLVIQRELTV
# T9: MPDZ_10, O75970
# T9 sequence (O75970 1624-1722, limits assumed, looked up): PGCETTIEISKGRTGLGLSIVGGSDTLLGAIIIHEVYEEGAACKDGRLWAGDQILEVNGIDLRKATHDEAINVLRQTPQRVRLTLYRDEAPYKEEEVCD
# T10: NHERF3_1, Q5T2W1
# T10 sequence (Q5T2W1 4-100, limits assumed, looked up): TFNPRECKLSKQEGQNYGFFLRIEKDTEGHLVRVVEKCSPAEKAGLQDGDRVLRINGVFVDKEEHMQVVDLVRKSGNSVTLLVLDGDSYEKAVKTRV
# T11: PCLO, Q9Y6V0
# T11 sequence (Q9Y6V0 4491-4600, limits assumed, looked up): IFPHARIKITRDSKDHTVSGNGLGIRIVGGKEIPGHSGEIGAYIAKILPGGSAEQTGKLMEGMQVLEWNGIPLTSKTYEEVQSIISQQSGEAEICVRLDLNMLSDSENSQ
# T12: SHANK1, Q9Y566
# T12 sequence (Q9Y566 658-767, limits assumed, looked up): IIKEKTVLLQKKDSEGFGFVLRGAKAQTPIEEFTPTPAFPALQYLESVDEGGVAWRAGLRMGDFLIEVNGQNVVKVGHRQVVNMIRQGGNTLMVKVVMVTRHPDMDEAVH
# Target: T1, APBA2_1, Q99767
# Assay: holdup assay
# Set-up: key: below the threshold = too weak to quantify, mostly under pKd 3.1 to 4
# Settings: plain residues with an end cap or a label only (N-terminal biotin on a linker: ahx)
row,pKd,Binder
1,below the threshold,"TEAKLTETNA [MYO18A, Q92614]"

# Target: T2, ARHGEF11, O15085
# Assay: holdup assay
# Set-up: key: below the threshold = too weak to quantify, mostly under pKd 3.1 to 4
# Settings: plain residues with an end cap or a label only (N-terminal biotin on a linker: ahx)
row,pKd,Binder
1,below the threshold,"TEAKLTETNA [MYO18A, Q92614]"

# Target: ARHGEF12, Q9NZN5-2
# Assay: holdup assay
# Set-up: key: below the threshold = too weak to quantify, mostly under pKd 3.1 to 4
# Settings: plain residues with an end cap or a label only (N-terminal biotin on a linker: ahx)
# ARHGEF12, Q9NZN5-2, sequence (Q9NZN5 other isoform, or with tags, fused parts or gaps): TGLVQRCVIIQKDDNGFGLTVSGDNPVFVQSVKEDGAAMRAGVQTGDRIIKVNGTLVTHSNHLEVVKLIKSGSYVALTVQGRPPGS
row,pKd,Binder
1,below the threshold,"TEAKLTETNA [MYO18A, Q92614]"

# Target: T3, CARD11, Q9BXL7
# Assay: holdup assay
# Set-up: key: below the threshold = too weak to quantify, mostly under pKd 3.1 to 4
# Settings: plain residues with an end cap or a label only (N-terminal biotin on a linker: ahx)
row,pKd,Binder
1,below the threshold,"TEAKLTETNA [MYO18A, Q92614]"

# Target: CASK, O14936
# Assay: holdup assay
# Set-up: key: below the threshold = too weak to quantify, mostly under pKd 3.1 to 4
# Settings: plain residues with an end cap or a label only (N-terminal biotin on a linker: ahx)
# CASK, O14936, sequence (O14936 487-570): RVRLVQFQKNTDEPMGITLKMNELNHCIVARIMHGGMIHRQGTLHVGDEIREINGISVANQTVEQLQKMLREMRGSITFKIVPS
row,pKd,Binder
1,below the threshold,"TEAKLTETNA [MYO18A, Q92614]"

# Target: GRASP, Q7Z6J2
# Assay: holdup assay
# Set-up: key: below the threshold = too weak to quantify, mostly under pKd 3.1 to 4
# Settings: plain residues with an end cap or a label only (N-terminal biotin on a linker: ahx)
# GRASP, Q7Z6J2, sequence (Q7Z6J2 96-193): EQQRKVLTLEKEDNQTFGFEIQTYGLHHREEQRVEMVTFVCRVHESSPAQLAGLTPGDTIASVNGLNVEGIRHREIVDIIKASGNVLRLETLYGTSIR
row,pKd,Binder
1,below the threshold,"TEAKLTETNA [MYO18A, Q92614]"

# Target: GRID2IP_1, A4D2P6
# Assay: holdup assay
# Set-up: key: below the threshold = too weak to quantify, mostly under pKd 3.1 to 4
# Settings: plain residues with an end cap or a label only (N-terminal biotin on a linker: ahx)
# GRID2IP_1, A4D2P6, sequence (A4D2P6 1-87): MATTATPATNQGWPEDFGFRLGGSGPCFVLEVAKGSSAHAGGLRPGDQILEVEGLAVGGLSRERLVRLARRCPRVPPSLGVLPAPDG
row,pKd,Binder
1,below the threshold,"TEAKLTETNA [MYO18A, Q92614]"

# Target: GRID2IP_2, A4D2P6
# Assay: holdup assay
# Set-up: key: below the threshold = too weak to quantify, mostly under pKd 3.1 to 4
# Settings: plain residues with an end cap or a label only (N-terminal biotin on a linker: ahx)
# GRID2IP_2, A4D2P6, sequence (A4D2P6 272-370): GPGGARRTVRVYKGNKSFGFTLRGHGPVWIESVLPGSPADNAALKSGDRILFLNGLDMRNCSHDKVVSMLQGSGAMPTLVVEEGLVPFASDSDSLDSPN
row,pKd,Binder
1,below the threshold,"TEAKLTETNA [MYO18A, Q92614]"

# Target: T4, GRIP1_2, Q9Y3R0
# Assay: holdup assay
# Set-up: key: below the threshold = too weak to quantify, mostly under pKd 3.1 to 4
# Settings: plain residues with an end cap or a label only (N-terminal biotin on a linker: ahx)
row,pKd,Binder
1,below the threshold,"TEAKLTETNA [MYO18A, Q92614]"

# Target: T5, GRIP1_5, Q9Y3R0
# Assay: holdup assay
# Set-up: key: below the threshold = too weak to quantify, mostly under pKd 3.1 to 4
# Settings: plain residues with an end cap or a label only (N-terminal biotin on a linker: ahx)
row,pKd,Binder
1,below the threshold,"TEAKLTETNA [MYO18A, Q92614]"

# Target: GRIP2_3, Q9C0E4
# Assay: holdup assay
# Set-up: key: below the threshold = too weak to quantify, mostly under pKd 3.1 to 4
# Settings: plain residues with an end cap or a label only (N-terminal biotin on a linker: ahx)
# GRIP2_3, Q9C0E4, sequence (Q9C0E4 238-339): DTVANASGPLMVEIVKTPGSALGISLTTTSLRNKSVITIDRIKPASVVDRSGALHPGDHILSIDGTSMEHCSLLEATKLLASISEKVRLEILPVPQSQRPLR
row,pKd,Binder
1,below the threshold,"TEAKLTETNA [MYO18A, Q92614]"

# Target: T6, HTRA4, P83105
# Assay: holdup assay
# Set-up: key: below the threshold = too weak to quantify, mostly under pKd 3.1 to 4
# Settings: plain residues with an end cap or a label only (N-terminal biotin on a linker: ahx)
row,pKd,Binder
1,below the threshold,"TEAKLTETNA [MYO18A, Q92614]"

# Target: Inadl_5, Q8NI35
# Assay: holdup assay
# Set-up: key: below the threshold = too weak to quantify, mostly under pKd 3.1 to 4
# Settings: plain residues with an end cap or a label only (N-terminal biotin on a linker: ahx)
# Inadl_5, Q8NI35, sequence (Q8NI35 673-780): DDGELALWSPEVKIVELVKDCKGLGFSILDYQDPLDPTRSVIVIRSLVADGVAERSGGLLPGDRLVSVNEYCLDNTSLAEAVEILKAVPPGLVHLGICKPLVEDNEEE
row,pKd,Binder
1,below the threshold,"TEAKLTETNA [MYO18A, Q92614]"

# Target: Inadl_8, Q8NI35
# Assay: holdup assay
# Set-up: key: below the threshold = too weak to quantify, mostly under pKd 3.1 to 4
# Settings: plain residues with an end cap or a label only (N-terminal biotin on a linker: ahx)
# Inadl_8, Q8NI35, sequence (Q8NI35 1425-1530): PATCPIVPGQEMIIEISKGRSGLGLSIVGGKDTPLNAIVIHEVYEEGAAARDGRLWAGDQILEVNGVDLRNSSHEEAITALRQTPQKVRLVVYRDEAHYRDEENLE
row,pKd,Binder
1,below the threshold,"TEAKLTETNA [MYO18A, Q92614]"

# Target: LDB3, O75112
# Assay: holdup assay
# Set-up: key: below the threshold = too weak to quantify, mostly under pKd 3.1 to 4
# Settings: plain residues with an end cap or a label only (N-terminal biotin on a linker: ahx)
# LDB3, O75112, sequence (O75112 1-94): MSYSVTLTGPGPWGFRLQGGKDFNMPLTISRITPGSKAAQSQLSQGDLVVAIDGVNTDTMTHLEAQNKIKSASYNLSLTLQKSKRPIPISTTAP
row,pKd,Binder
1,below the threshold,"TEAKLTETNA [MYO18A, Q92614]"

# Target: T7, LNX2_2, Q8N448
# Assay: holdup assay
# Set-up: key: below the threshold = too weak to quantify, mostly under pKd 3.1 to 4
# Settings: plain residues with an end cap or a label only (N-terminal biotin on a linker: ahx)
row,pKd,Binder
1,below the threshold,"TEAKLTETNA [MYO18A, Q92614]"

# Target: T8, LRRC7, Q96NW7
# Assay: holdup assay
# Set-up: key: below the threshold = too weak to quantify, mostly under pKd 3.1 to 4
# Settings: plain residues with an end cap or a label only (N-terminal biotin on a linker: ahx)
row,pKd,Binder
1,below the threshold,"TEAKLTETNA [MYO18A, Q92614]"

# Target: MAGI1_2, Q96QZ7
# Assay: holdup assay
# Set-up: key: below the threshold = too weak to quantify, mostly under pKd 3.1 to 4
# Settings: plain residues with an end cap or a label only (N-terminal biotin on a linker: ahx)
# MAGI1_2, Q96QZ7, sequence (Q96QZ7 456-580): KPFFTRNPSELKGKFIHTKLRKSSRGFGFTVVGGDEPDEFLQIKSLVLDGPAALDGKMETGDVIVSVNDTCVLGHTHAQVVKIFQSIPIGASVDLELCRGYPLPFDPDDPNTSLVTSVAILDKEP
row,pKd,Binder
1,below the threshold,"TEAKLTETNA [MYO18A, Q92614]"

# Target: MAGI2_4, Q86UL8
# Assay: holdup assay
# Set-up: key: below the threshold = too weak to quantify, mostly under pKd 3.1 to 4
# Settings: plain residues with an end cap or a label only (N-terminal biotin on a linker: ahx)
# MAGI2_4, Q86UL8, sequence (Q86UL8 772-865): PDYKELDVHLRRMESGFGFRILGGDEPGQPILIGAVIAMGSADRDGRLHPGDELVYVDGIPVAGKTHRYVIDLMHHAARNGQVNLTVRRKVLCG
row,pKd,Binder
1,below the threshold,"TEAKLTETNA [MYO18A, Q92614]"

# Target: T9, MPDZ_10, O75970
# Assay: holdup assay
# Set-up: key: below the threshold = too weak to quantify, mostly under pKd 3.1 to 4
# Settings: plain residues with an end cap or a label only (N-terminal biotin on a linker: ahx)
row,pKd,Binder
1,below the threshold,"TEAKLTETNA [MYO18A, Q92614]"

# Target: T10, NHERF3_1, Q5T2W1
# Assay: holdup assay
# Set-up: key: below the threshold = too weak to quantify, mostly under pKd 3.1 to 4
# Settings: plain residues with an end cap or a label only (N-terminal biotin on a linker: ahx)
row,pKd,Binder
1,below the threshold,"TEAKLTETNA [MYO18A, Q92614]"

# Target: NHERF4_2, Q86UT5
# Assay: holdup assay
# Set-up: key: below the threshold = too weak to quantify, mostly under pKd 3.1 to 4
# Settings: plain residues with an end cap or a label only (N-terminal biotin on a linker: ahx)
# NHERF4_2, Q86UT5, sequence (Q86UT5 220-308): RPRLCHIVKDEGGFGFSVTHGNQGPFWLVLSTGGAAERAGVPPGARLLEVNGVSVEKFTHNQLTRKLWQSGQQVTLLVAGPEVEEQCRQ
row,pKd,Binder
1,below the threshold,"TEAKLTETNA [MYO18A, Q92614]"

# Target: T11, PCLO, Q9Y6V0
# Assay: holdup assay
# Set-up: key: below the threshold = too weak to quantify, mostly under pKd 3.1 to 4
# Settings: plain residues with an end cap or a label only (N-terminal biotin on a linker: ahx)
row,pKd,Binder
1,below the threshold,"TEAKLTETNA [MYO18A, Q92614]"

# Target: PTPN3, P26045
# Assay: holdup assay
# Set-up: key: below the threshold = too weak to quantify, mostly under pKd 3.1 to 4
# Settings: plain residues with an end cap or a label only (N-terminal biotin on a linker: ahx)
# PTPN3, P26045, sequence (P26045 505-587): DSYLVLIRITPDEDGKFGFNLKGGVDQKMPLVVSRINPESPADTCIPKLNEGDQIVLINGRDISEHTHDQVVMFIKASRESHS
row,pKd,Binder
1,below the threshold,"TEAKLTETNA [MYO18A, Q92614]"

# Target: T12, SHANK1, Q9Y566
# Assay: holdup assay
# Set-up: key: below the threshold = too weak to quantify, mostly under pKd 3.1 to 4
# Settings: plain residues with an end cap or a label only (N-terminal biotin on a linker: ahx)
row,pKd,Binder
1,below the threshold,"TEAKLTETNA [MYO18A, Q92614]"
